Data set [1] relates to M.CviRI DNA methyltransferase.
Data set [2] concerns the target T1, M.BamHI DNA methyltransferase (UniProt P23941).
T1 sequence: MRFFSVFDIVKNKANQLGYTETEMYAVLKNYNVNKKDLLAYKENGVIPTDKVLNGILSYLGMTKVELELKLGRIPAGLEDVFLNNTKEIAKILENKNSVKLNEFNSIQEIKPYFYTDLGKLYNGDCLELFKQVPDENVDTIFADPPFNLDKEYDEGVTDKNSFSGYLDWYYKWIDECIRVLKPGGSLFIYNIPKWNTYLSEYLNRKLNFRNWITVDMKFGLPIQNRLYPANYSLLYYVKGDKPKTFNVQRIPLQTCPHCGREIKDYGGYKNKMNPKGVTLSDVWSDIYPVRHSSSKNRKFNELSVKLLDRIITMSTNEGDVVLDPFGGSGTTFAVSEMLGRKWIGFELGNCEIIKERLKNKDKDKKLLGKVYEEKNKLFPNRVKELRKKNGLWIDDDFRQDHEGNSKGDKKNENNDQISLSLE

In data set [3] the target is T2, M.EcoRI DNA methyltransferase (UniProt P00472).
T2 sequence: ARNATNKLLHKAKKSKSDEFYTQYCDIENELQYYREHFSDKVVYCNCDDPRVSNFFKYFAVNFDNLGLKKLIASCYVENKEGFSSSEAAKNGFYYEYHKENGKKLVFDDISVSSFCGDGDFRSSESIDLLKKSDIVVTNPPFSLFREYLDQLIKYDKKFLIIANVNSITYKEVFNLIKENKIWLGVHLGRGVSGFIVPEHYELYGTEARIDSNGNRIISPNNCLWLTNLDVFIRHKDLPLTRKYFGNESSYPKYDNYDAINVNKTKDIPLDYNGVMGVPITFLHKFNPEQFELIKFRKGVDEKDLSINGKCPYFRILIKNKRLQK

Data set [4] addresses M.HaeIII DNA methyltransferase (UniProt P20589). The following applies: background 615.
Where [5] appears, read: 3H-methyl-SAM, 23 C, 5 mM EDTA, no MTase 574.

Where two headings read alike, the source gives them in different places.

As to “GGTGGGAGAAGAAGATAAAAAGTAACATCTTTCTGCCTTCCAGATGATTCGAAGAATTTCTCCATCCAAGTGCGGCAGGTGGAGGATTGCCCTGTGGACATCTACTACTTGATGGACCTGTCTTACTCCATGCCGGATGATCTGTGGAGCATCCAGAACCTGGGTACCAAGCTGGCCACCCAGATGCGAAAGCTCACCAGTAACCTGCGGATTGGCTTCGGGGCATTTGTGGACAAGCCTGTGTCACCATACATGTATATCTCCCCACCAGAGGCCCTCGAAAACCCCTGCTATGAGTAAGTCCCTCCTCCAGACGCCAGGACAGCATCCTTTGCCCAGGAAGGTCCAAGTCCTGGTTCCTA (double strand) [GPIIIa Yuka/a 362 bp amplicon]”, in data set [1] (background 472), the activity turned out to be 506 cpm.

On to “GGTGGGAGAAGAAGATAAAAAGTAACATCTTTCTGCCTTCCAGATGATTCGAAGAATTTCTCCATCCAAGTGCGGCAGGTGGAGGATTGCCCTGTGGACATCTACTACTTGATGGACCTGTCTTACTCCATGCCGGATGATCTGTGGAGCATCCAGAACCTGGGTACCAAGCTGGCCACCCAGATGCGAAAGCTCACCAGTAACCTGCGGATTGGCTTCGGGGCATTTGTGGACAAGCCTGTGTCACCATACATGTATATCTCCCCACCAGAGGCCCTCGAAAACCCCTGCTATGAGTAAGTCCCTCCTCCAGACGCCAGGACAGCATCCTTTGCCCAGGAAGGTCCAAGTCCTGGTTCCTA (double strand) [GPIIIa Yukb/b 362 bp amplicon]”, for which the activity in data set [1] (3H-methyl-SAM, 23 C, 5 mM EDTA, background 501) worked out at 12200 cpm.

For “pBluescript 191 bp amplicon predigested with BamHI”, the activity in data set [2] (site cleaved, background 661) came to 999 cpm; in data set [3] (background 661), 32800 cpm.

“pBluescript 191 bp amplicon predigested with EcoRI”: the activity was 1310 cpm in data set [2] (background 750, nearby frayed EcoRI end interferes) and 770 cpm in data set [3] (site cleaved, background 750).

For “pBluescript SK+ polylinker 191 bp amplicon”, the activity in data set [2] (setting [5]) was determined as 69700 cpm; in data set [3] (setting [5]), 85000 cpm.

pUC19: the activity in data set [1] (background 615) turned out to be 118000 cpm; in data set [4], 26200 cpm.
